From US20110263827A1 (AbbVie / Abbott, published 2011)

B1: DVD829 (bispecific antibody)
VH: QVQLQESGPGLVKPSQTLSLTCTVSGYSISSDFAWNWIRQPPGKGLEWMGYISYSGNTRYQPSLKSRITISRDTSKNQFFLKLNSVTAADTATYYCVTAGRGFPYWGQGTLVTVSSASTKGPQVQLQQWGAGLLKPSETLSLTCAVYGGSFSGYYWSWIRQPPGKGLEWIGEINHSGSTNYNPSLKSRVTISVETSKNQFSLKLSSVTAADTAVYYCARDKWTWYFDLWGRGTLVTVSS
VL: DIQMTQSPSSMSVSVGDRVTITCHSSQDINSNIGWLQQKPGKSFKGLIYHGTNLDDGVPSRFSGSGSGTDYTLTISSLQPEDFATYYCVQYAQFPWTFGGGTKLEIKRTVAAPSVFIFPPDIEMTQSPDSLAVSLGERATINCRSSQSVLYSSSNRNYLAWYQQNPGQPPKLLIYWASTRESGVPDRFSGSGSGTDFTLTISSLQAEDVAVYYCQQYYSTPRTFGQGTKVEIKR
notes: DVD-Ig; HC S, LC L; variable parts only
B2: DVD831 (bispecific antibody)
VH: QVQLQESGPGLVKPSQTLSLTCTVSGYSISSDFAWNWIRQPPGKGLEWMGYISYSGNTRYQPSLKSRITISRDTSKNQFFLKLNSVTAADTATYYCVTAGRGFPYWGQGTLVTVSSASTKGPEVQLVESGGGLVQPGGSLRLSCAASGFTFSIYSMNWVRQAPGKGLEWVSYISSSSSTIYYADSVKGRFTISRDNAKNSLYLQMNSLRDEDTAVYYCARDRGDFDAFDIWGQGTMVTVSS
VL: DIQMTQSPSSMSVSVGDRVTITCHSSQDINSNIGWLQQKPGKSFKGLIYHGTNLDDGVPSRFSGSGSGTDYTLTISSLQPEDFATYYCVQYAQFPWTFGGGTKLEIKRTVAAPSVFIFPPDIQMTQSPSSLSASVGDRVTITCQASQDITNYLNWYQQKPGKAPKLLIYDASNLETGVPSRFSGSGSGTDFTFTISSLQPEDIATYNCQQCENFPITFGQGTRLEIKR
notes: as for B1
B3: DVD328 (bispecific antibody)
VH: QVQLQQWGAGLLKPSETLSLTCAVYGGSFSGYYWSWIRQPPGKGLEWIGEINHSGSTNYNPSLKSRVTISVETSKNQFSLKLSSVTAADTAVYYCARDKWTWYFDLWGRGTLVTVSSASTKGPQVQLQESGPGLVKPSQTLSLTCTVSGYSISSDFAWNWIRQPPGKGLEWMGYISYSGNTRYQPSLKSRITISRDTSKNQFFLKLNSVTAADTATYYCVTAGRGFPYWGQGTLVTVSS
VL: DIEMTQSPDSLAVSLGERATINCRSSQSVLYSSSNRNYLAWYQQNPGQPPKLLIYWASTRESGVPDRFSGSGSGTDFTLTISSLQAEDVAVYYCQQYYSTPRTFGQGTKVEIKRTVAAPDIQMTQSPSSMSVSVGDRVTITCHSSQDINSNIGWLQQKPGKSFKGLIYHGTNLDDGVPSRFSGSGSGTDYTLTISSLQPEDFATYYCVQYAQFPWTFGGGTKLEIKR
notes: DVD-Ig; HC S, LC S; variable parts only
B4: DVD330 (bispecific antibody)
VH: EVQLVESGGGLVQPGGSLRLSCAASGFTFSIYSMNWVRQAPGKGLEWVSYISSSSSTIYYADSVKGRFTISRDNAKNSLYLQMNSLRDEDTAVYYCARDRGDFDAFDIWGQGTMVTVSSASTKGPQVQLQESGPGLVKPSQTLSLTCTVSGYSISSDFAWNWIRQPPGKGLEWMGYISYSGNTRYQPSLKSRITISRDTSKNQFFLKLNSVTAADTATYYCVTAGRGFPYWGQGTLVTVSS
VL: DIQMTQSPSSLSASVGDRVTITCQASQDITNYLNWYQQKPGKAPKLLIYDASNLETGVPSRFSGSGSGTDFTFTISSLQPEDIATYNCQQCENFPITFGQGTRLEIKRTVAAPDIQMTQSPSSMSVSVGDRVTITCHSSQDINSNIGWLQQKPGKSFKGLIYHGTNLDDGVPSRFSGSGSGTDYTLTISSLQPEDFATYYCVQYAQFPWTFGGGTKLEIKR
notes: as for B3
B5: DVD788 (bispecific antibody)
VH: EVQLLESGGGLVQPGGSLRLSCAASGFTFSHYVMAWVRQAPGKGLEWVSSISSSGGWTLYADSVKGRFTISRDNSKNTLYLQMNSLRAEDTAVYYCTRGLKMATIFDYWGQGTLVTVSSASTKGPSVFPLAPQVQLQESGPGLVKPSQTLSLTCTVSGYSISSDFAWNWIRQPPGKGLEWMGYISYSGNTRYQPSLKSRITISRDTSKNQFFLKLNSVTAADTATYYCVTAGRGFPYWGQGTLVTVSS
VL: QSALTQPASVSGSPGQSITISCTGTSSDVGSYNVVSWYQQHPGKAPKLIIYEVSQRPSGVSNRFSGSKSGNTASLTISGLQTEDEADYYCCSYAGSSIFVIFGGGTKVTVLGQPKAAPSVTLFPPDIQMTQSPSSMSVSVGDRVTITCHSSQDINSNIGWLQQKPGKSFKGLIYHGTNLDDGVPSRFSGSGSGTDYTLTISSLQPEDFATYYCVQYAQFPWTFGGGTKLEIKR
notes: DVD-Ig; HC L, LC L; variable parts only
B6: DVD818 (bispecific antibody)
VH: B5 VH
VL: QSALTQPASVSGSPGQSITISCTGTSSDVGSYNVVSWYQQHPGKAPKLIIYEVSQRPSGVSNRFSGSKSGNTASLTISGLQTEDEADYYCCSYAGSSIFVIFGGGTKVTVLGQPKAAPDIQMTQSPSSMSVSVGDRVTITCHSSQDINSNIGWLQQKPGKSFKGLIYHGTNLDDGVPSRFSGSGSGTDYTLTISSLQPEDFATYYCVQYAQFPWTFGGGTKLEIKR
notes: DVD-Ig; HC L, LC S; variable parts only
B7: DVD847 (bispecific antibody)
VH: QVQLQESGPGLVKPSQTLSLTCTVSGYSISSDFAWNWIRQPPGKGLEWMGYISYSGNTRYQPSLKSRITISRDTSKNQFFLKLNSVTAADTATYYCVTAGRGFPYWGQGTLVTVSSASTKGPEVQLLESGGGLVQPGGSLRLSCAASGFTFSHYVMAWVRQAPGKGLEWVSSISSSGGWTLYADSVKGRFTISRDNSKNTLYLQMNSLRAEDTAVYYCTRGLKMATIFDYWGQGTLVTVSS
VL: DIQMTQSPSSMSVSVGDRVTITCHSSQDINSNIGWLQQKPGKSFKGLIYHGTNLDDGVPSRFSGSGSGTDYTLTISSLQPEDFATYYCVQYAQFPWTFGGGTKLEIKRTVAAPSVFIFPPQSALTQPASVSGSPGQSITISCTGTSSDVGSYNVVSWYQQHPGKAPKLIIYEVSQRPSGVSNRFSGSKSGNTASLTISGLQTEDEADYYCCSYAGSSIFVIFGGGTKVTVLG
notes: as for B1
B8: DVD755 (bispecific antibody)
VH: B7 VH
VL: DIQMTQSPSSMSVSVGDRVTITCHSSQDINSNIGWLQQKPGKSFKGLIYHGTNLDDGVPSRFSGSGSGTDYTLTISSLQPEDFATYYCVQYAQFPWTFGGGTKLEIKRTVAAPQSALTQPASVSGSPGQSITISCTGTSSDVGSYNVVSWYQQHPGKAPKLIIYEVSQRPSGVSNRFSGSKSGNTASLTISGLQTEDEADYYCCSYAGSSIFVIFGGGTKVTVLG
notes: as for B3
B9: DVD772 (bispecific antibody)
VH: EVQLVESGGGLVQPGGSLRLSCAASGFTFSIYSMNWVRQAPGKGLEWVSYISSSSSTIYYADSVKGRFTISRDNAKNSLYLQMNSLRDEDTAVYYCARDRGDFDAFDIWGQGTMVTVSSASTKGPSVFPLAPQVQLQESGPGLVKPSQTLSLTCTVSGYSISSDFAWNWIRQPPGKGLEWMGYISYSGNTRYQPSLKSRITISRDTSKNQFFLKLNSVTAADTATYYCVTAGRGFPYWGQGTLVTVSS
VL: DIQMTQSPSSLSASVGDRVTITCQASQDITNYLNWYQQKPGKAPKLLIYDASNLETGVPSRFSGSGSGTDFTFTISSLQPEDIATYNCQQCENFPITFGQGTRLEIKRTVAAPSVFIFPPDIQMTQSPSSMSVSVGDRVTITCHSSQDINSNIGWLQQKPGKSFKGLIYHGTNLDDGVPSRFSGSGSGTDYTLTISSLQPEDFATYYCVQYAQFPWTFGGGTKLEIKR
notes: as for B5
B10: DVD802 (bispecific antibody)
VH: B9 VH
VL: B4 VL
notes: as for B6
B11: DVD770 (bispecific antibody)
VH: QVQLQQWGAGLLKPSETLSLTCAVYGGSFSGYYWSWIRQPPGKGLEWIGEINHSGSTNYNPSLKSRVTISVETSKNQFSLKLSSVTAADTAVYYCARDKWTWYFDLWGRGTLVTVSSASTKGPSVFPLAPQVQLQESGPGLVKPSQTLSLTCTVSGYSISSDFAWNWIRQPPGKGLEWMGYISYSGNTRYQPSLKSRITISRDTSKNQFFLKLNSVTAADTATYYCVTAGRGFPYWGQGTLVTVSS
VL: DIEMTQSPDSLAVSLGERATINCRSSQSVLYSSSNRNYLAWYQQNPGQPPKLLIYWASTRESGVPDRFSGSGSGTDFTLTISSLQAEDVAVYYCQQYYSTPRTFGQGTKVEIKRTVAAPSVFIFPPDIQMTQSPSSMSVSVGDRVTITCHSSQDINSNIGWLQQKPGKSFKGLIYHGTNLDDGVPSRFSGSGSGTDYTLTISSLQPEDFATYYCVQYAQFPWTFGGGTKLEIKR
notes: as for B5
B12: DVD800 (bispecific antibody)
VH: B11 VH
VL: B3 VL
notes: as for B6

Key:
[1] = target: T1, ErbB3 (UniProt P21860 20-643, limits assumed, biotinylated); assay: direct bind ELISA, C-term VD;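 further: ELISA with antibody or DVD-Ig preparations applied to target antigen-coated plates for 1 h at room temperature, TMB colour development, absorbance read at 450 nm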
T1 construct: ELISA antigen

[2] = target: T2, EGFR (UniProt P00533 25-645, limits assumed, biotinylated); assay: direct bind ELISA, N-term VD;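 further: antibody or DVD-Ig preparations bound to immobilized target antigen on ELISA plates, 1 h at room temperature, TMB detection read as absorbance at 450 nm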
T2 construct: ELISA antigen; construct not described

[3] = target: T2, EGFR; assay: direct bind ELISA, C-term VD;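 further: ELISA with antibody or DVD-Ig preparations applied to target antigen-coated plates for 1 h at room temperature, TMB colour development, absorbance read at 450 nm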
[4] = target: T1, ErbB3; assay: direct bind ELISA, N-term VD;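 further: antibody or DVD-Ig preparations bound to immobilized target antigen on ELISA plates, 1 h at room temperature, TMB detection read as absorbance at 450 nm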

Row | Binder | EC50 [1] | EC50 [2] | EC50 [3] | EC50 [4]
1 | B1 | 41.4 nM | 3.81 nM |  | 
2 | B2 | 1.42 nM | 4.6 nM |  | 
3 | B3 |  |  | 94.9 nM | 1.14 nM
4 | B4 |  |  | 224 nM | 1.29 nM
5 | B5 |  |  | 18 nM | 3.14 nM
6 | B6 |  |  | 19.3 nM | 3.32 nM
7 | B7 | 12.9 nM | 2.92 nM |  | 
8 | B8 | 27.7 nM | 3.26 nM |  | 
9 | B9 |  |  | 77.2 nM | 31.4 nM
10 | B10 |  |  | 726 nM | 11.1 nM
11 | B11 |  |  | 15.2 nM | 1.55 nM
12 | B12 |  |  | 67.3 nM | 2.06 nM
